According to patent US20130133089A1 (MEDICAL RESEARCH INFRASTRUCTURE AND HEALTH SERVICES FUND OF …, published 2013):
Like-named read-outs stand apart in the source and are kept apart here.

Legend:
[1] = biological target: T1, Recombinant human leptin binding domain (hLBD) (human, UniProt P48357 428-635, biotinylated with Sulfo-NHS-LC-Biotin in the yeast display assays; not labelled when immobilized in the plate binding assay); assay: competitive plate binding assay: immobilized hLBD, biotinylated mouse leptin as ligand, mutein as competitor
T1 construct: CRH2 sub-domain of the leptin receptor; Prepared in the applicants' laboratory; also called soluble human leptin receptor; CHR2
T1 sequence (looked up): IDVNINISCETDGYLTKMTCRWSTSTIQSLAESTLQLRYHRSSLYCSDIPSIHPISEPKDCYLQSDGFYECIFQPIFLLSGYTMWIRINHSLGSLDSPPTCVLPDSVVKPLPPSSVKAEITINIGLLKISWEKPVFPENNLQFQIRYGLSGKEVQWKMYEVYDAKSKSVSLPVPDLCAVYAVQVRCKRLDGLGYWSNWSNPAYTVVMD
Protocol: (§1) Biotinylated mouse leptin served as the ligand in all competitive experiments and the respective mouse leptin or mouse or human leptin antagonist muteins as competitors. The hLBD was used as the receptor source. Polystyrene 96-well microtiter plates were coated overnight at 4° C. with 100 μl of 40 μM hLBD in PBS pH 7.4. Wells were then washed one time with PBST (PBS containing 0.05 Tween 20) and blocked with PBS containing 3% skim milk for two hours in room temperature. All further incubations were carried out at room temperature. Wells were washed one time with PBST and incubated with different concentrations of un-labeled leptins (50 μl/well) for 30 min and then 50 μl of 62.5 μM of biotinylated mouse leptin were added to each well for another two hours. Then the wells were washed three times with PBST and incubated with 1:30,000 streptavidin-HRP in PBS containing 1 Tween 20 for one hour. Subsequently the wells were washed three times with PBST and the reaction was quantified in 450 nm by microplate reader ELISA Plate Reader ELx808—Bio-Tek Instrument Inc. (Winooski, Vt., USA) using TMB according to manufacturer's instructions.

[2] = biological target: T1, Recombinant human leptin binding domain …; assay: yeast display, flow cytometry titration with biotinylated hLBD (FIG. 4A)
Description: (§2) Those 7 mouse leptin mutants were selected for preparation of respectively mutated leptins expressed in E. coli.

[3] = biological target: T1, Recombinant human leptin binding domain …; assay: yeast display, flow cytometry titration with biotinylated hLBD (FIG. 4B)
Description: as §2

[4] = biological target: long form of human leptin receptor (hLEPR) on BAF/3 or H-49 (HEK-293) cells (human), P48357; assay: cell-based or functional assay
[5] = biological target: T1, Recombinant human leptin binding domain …; assay: competitive plate binding assay: immobilized hLBD, biotinylated mouse leptin as ligand, mutein as competitor; remark: listed apart in the source
Protocol: as §1

Chain of long form of human leptin receptor (hLEPR) on BAF/3 or H-49 (HEK-293) cells (human), P48357 (P48357 22-1165): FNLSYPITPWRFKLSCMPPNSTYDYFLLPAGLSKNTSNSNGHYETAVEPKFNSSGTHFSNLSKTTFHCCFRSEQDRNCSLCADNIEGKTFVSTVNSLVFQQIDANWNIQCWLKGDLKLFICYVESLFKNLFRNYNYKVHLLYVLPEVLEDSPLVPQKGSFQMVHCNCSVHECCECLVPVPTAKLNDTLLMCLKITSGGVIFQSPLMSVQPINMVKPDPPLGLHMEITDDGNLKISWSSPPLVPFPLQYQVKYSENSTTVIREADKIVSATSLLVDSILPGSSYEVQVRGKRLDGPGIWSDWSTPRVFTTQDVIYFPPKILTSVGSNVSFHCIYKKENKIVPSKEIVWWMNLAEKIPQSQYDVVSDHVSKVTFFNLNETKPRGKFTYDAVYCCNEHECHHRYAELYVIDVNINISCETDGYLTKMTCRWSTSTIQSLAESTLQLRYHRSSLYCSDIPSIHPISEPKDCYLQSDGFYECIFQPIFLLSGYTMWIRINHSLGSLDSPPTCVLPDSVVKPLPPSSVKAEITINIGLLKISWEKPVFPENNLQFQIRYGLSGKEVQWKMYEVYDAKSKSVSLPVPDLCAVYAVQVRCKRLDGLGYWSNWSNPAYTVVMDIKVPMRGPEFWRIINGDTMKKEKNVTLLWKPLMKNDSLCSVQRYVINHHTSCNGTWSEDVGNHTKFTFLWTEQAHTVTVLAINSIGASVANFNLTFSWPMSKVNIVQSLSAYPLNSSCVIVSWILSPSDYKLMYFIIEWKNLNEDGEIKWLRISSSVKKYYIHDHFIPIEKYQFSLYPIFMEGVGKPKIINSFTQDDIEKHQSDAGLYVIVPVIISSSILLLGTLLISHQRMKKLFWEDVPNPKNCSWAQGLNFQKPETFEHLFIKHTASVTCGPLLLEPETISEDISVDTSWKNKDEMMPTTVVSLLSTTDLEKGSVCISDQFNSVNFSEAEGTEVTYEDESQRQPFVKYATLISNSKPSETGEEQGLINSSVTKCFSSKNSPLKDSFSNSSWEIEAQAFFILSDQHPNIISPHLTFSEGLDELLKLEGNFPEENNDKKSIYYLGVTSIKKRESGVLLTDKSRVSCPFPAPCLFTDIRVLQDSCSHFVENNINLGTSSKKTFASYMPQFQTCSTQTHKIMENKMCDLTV

B1: superactive mouse leptin antagonist (SMLA), D23L/L39A/D40A/F41A mouse leptin (ligand)
chain: VPIQKVQDDTKTLIKTLVTRINLISHTQSVSAKQRVTGAAAIPGLHPILSLSKMDQTLAVYQQVLTSLPSQNVLQIANDLENLRDLLHLLAFSKSCSLPQTSGLQKPESLDGVLEASLYSTEVVALSRLQGSLQDILQQVDLSPGC
notes: also called D23L MLA; super active MLA
In the case of B1, the “fold increase in affinity as compared to the WT mouse leptin antagonist” value [1] is reported as 64 fold.

B2: yeast-displayed mouse leptin clone H30 (D23H) (ligand, UniProt P41160 22-167, looked up, not shown: large carriers; small tags and cut ends)
chain: VPIQKVQDDTKTLIKTIVTRINHISHTQSVSAKQRVTGLDFIPGLHPILSLSKMDQTLAVYQQVLTSLPSQNVLQIANDLENLRDLLHLLAFSKSCSLPQTSGLQKPESLDGVLEASLYSTEVVALSRLQGSLQDILQQLDVSPEC
notes: mature
Work on B2 yielded a Bmax [2] of 847 MFI, a Kd [2] of 59.5 nM and a Bmax [3] of 741 MFI. The Kd [3] was 40.9 nM.

B3: mouse leptin antagonist D23G/L39A/D40A/F41A (ligand)
chain: AVPIQKVQDDTKTLIKTIVTRINGISHTQSVSAKQRVTGAAAIPGLHPILSLSKMDQTLAVYQQVLTSLPSQNVLQIANDLENLRDLLHLLAFSKSCSLPQTSGLQKPESLDGVLEASLYSTEVVALSRLQGSLQDILQQLDVSPEC
notes: mature
For B3, the BAF/3 bioassay: fold increase in bioactivity as compared to the WT mouse leptin antagonist [4] was 2.5 fold and the “fold increase in affinity as compared to the WT mouse leptin antagonist” value [1] was 17.5 fold.

B4: mouse leptin antagonist H12 (S97Y + L39A/D40A/F41A) (ligand)
chain: AVPIQKVQDDTKTLIKTIVTRINDISHTQSVSAKQRVTGAAAIPGLHPILSLSKMDQTLAVYQQVLTSLPSQNVLQIANDLENLRDLLHLLAFSKSCYLPQTSGLQKPESLDGVLEASLYSTEVVALSRLQGSLQDILQQLDVSPEC
notes: mature; also called H12 (antagonist)
B4 was tested, and the “fold increase in affinity as compared to the WT mouse leptin antagonist” value [5] was 1.4 fold.

B5: recombinant mouse leptin mutein H16 (D23G, G112S), agonist (ligand)
chain: AVPIQKVQDDTKTLIKTIVTRINGISHTQSVSAKQRVTGLDFIPGLHPILSLSKMDQTLAVYQQVLTSLPSQNVLQIANDLENLRDLLHLLAFSKSCSLPQTSGLQKPESLDSVLEASLYSTEVVALSRLQGSLQDILQQLDVSPEC
notes: mature
B5 was tested, and the BAF/3 bioassay: fold increase in bioactivity as compared to the WT mouse leptin [4] was 0.8 fold, the Luciferase bioassay: fold increase in bioactivity as compared to the WT mouse leptin [4] was 0.9 fold and the “fold increase in affinity as compared to the WT mouse leptin” value [5] was 20.3 fold.

B6: recombinant mouse leptin mutein H22 (T12I), agonist (ligand)
chain: AVPIQKVQDDTKILIKTIVTRINDISHTQSVSAKQRVTGLDFIPGLHPILSLSKMDQTLAVYQQVLTSLPSQNVLQIANDLENLRDLLHLLAFSKSCSLPQTSGLQKPESLDGVLEASLYSTEVVALSRLQGSLQDILQQLDVSPEC
notes: mature
B6 was tested, and the “fold increase in affinity as compared to the WT mouse leptin” value [5] was 11.7 fold.

B7: recombinant mouse leptin mutein H30 (D23H), agonist (ligand)
chain: AVPIQKVQDDTKTLIKTIVTRINHISHTQSVSAKQRVTGLDFIPGLHPILSLSKMDQTLAVYQQVLTSLPSQNVLQIANDLENLRDLLHLLAFSKSCSLPQTSGLQKPESLDGVLEASLYSTEVVALSRLQGSLQDILQQLDVSPEC
notes: mature
In the case of B7, the BAF/3 bioassay: fold increase in bioactivity as compared to the WT mouse leptin [4] is reported as 0.3 fold, the Luciferase bioassay: fold increase in bioactivity as compared to the WT mouse leptin [4] is reported as 0.6 fold and the “fold increase in affinity as compared to the WT mouse leptin” value [5] is reported as 35 fold.

B8: mouse leptin antagonist D23R/L39A/D40A/F41A (ligand)
chain: AVPIQKVQDDTKTLIKTIVTRINRISHTQSVSAKQRVTGAAAIPGLHPILSLSKMDQTLAVYQQVLTSLPSQNVLQIANDLENLRDLLHLLAFSKSCSLPQTSGLQKPESLDGVLEASLYSTEVVALSRLQGSLQDILQQLDVSPEC
notes: mature; also called D23R MLA
With B8 the BAF/3 bioassay: fold increase in bioactivity as compared to the WT mouse leptin antagonist [4] was 8.6 fold and the “fold increase in affinity as compared to the WT mouse leptin antagonist” value [1] was 51 fold.

B9: mouse leptin antagonist H15 (D23G, L68M, S97F, S132Y + L39A/D40A/F41A) (ligand)
chain: AVPIQKVQDDTKTLIKTIVTRINGISHTQSVSAKQRVTGAAAIPGLHPILSLSKMDQTLAVYQQVLTSMPSQNVLQIANDLENLRDLLHLLAFSKSCFLPQTSGLQKPESLDGVLEASLYSTEVVALSRLQGYLQDILQQLDVSPEC
notes: mature; also called H15 (antagonist)
For B9, the “fold increase in affinity as compared to the WT mouse leptin antagonist” value [5] was 12.4 fold.

B10: mouse leptin antagonist H16 (D23G, G112S + L39A/D40A/F41A) (ligand)
chain: AVPIQKVQDDTKTLIKTIVTRINGISHTQSVSAKQRVTGAAAIPGLHPILSLSKMDQTLAVYQQVLTSLPSQNVLQIANDLENLRDLLHLLAFSKSCSLPQTSGLQKPESLDSVLEASLYSTEVVALSRLQGSLQDILQQLDVSPEC
notes: mature; also called H16 (antagonist)
In the case of B10, the “fold increase in affinity as compared to the WT mouse leptin antagonist” value [5] is reported as 11 fold.

B11: mouse leptin antagonist D23F/L39A/D40A/F41A (ligand)
chain: AVPIQKVQDDTKTLIKTIVTRINFISHTQSVSAKQRVTGAAAIPGLHPILSLSKMDQTLAVYQQVLTSLPSQNVLQIANDLENLRDLLHLLAFSKSCSLPQTSGLQKPESLDGVLEASLYSTEVVALSRLQGSLQDILQQLDVSPEC
notes: mature
B11 was tested, and the BAF/3 bioassay: fold increase in bioactivity as compared to the WT mouse leptin antagonist [4] was 3.7 fold and the “fold increase in affinity as compared to the WT mouse leptin antagonist” value [1] was 28 fold.

B12: mouse leptin antagonist D23A/L39A/D40A/F41A (ligand)
chain: AVPIQKVQDDTKTLIKTIVTRINAISHTQSVSAKQRVTGAAAIPGLHPILSLSKMDQTLAVYQQVLTSLPSQNVLQIANDLENLRDLLHLLAFSKSCSLPQTSGLQKPESLDGVLEASLYSTEVVALSRLQGSLQDILQQLDVSPEC
notes: mature
With B12 the BAF/3 bioassay: fold increase in bioactivity as compared to the WT mouse leptin antagonist [4] was 3.3 fold and the “fold increase in affinity as compared to the WT mouse leptin antagonist” value [1] was 21 fold.

B13: recombinant mouse leptin mutein H15 (D23G, L68M, S97F, S132Y), agonist (ligand)
chain: AVPIQKVQDDTKTLIKTIVTRINGISHTQSVSAKQRVTGLDFIPGLHPILSLSKMDQTLAVYQQVLTSMPSQNVLQIANDLENLRDLLHLLAFSKSCFLPQTSGLQKPESLDGVLEASLYSTEVVALSRLQGYLQDILQQLDVSPEC
notes: mature
B13 was tested, and the “fold increase in affinity as compared to the WT mouse leptin” value [5] was 9.7 fold.

B14: recombinant mouse leptin mutein H12 (S97Y), agonist (ligand)
chain: AVPIQKVQDDTKTLIKTIVTRINDISHTQSVSAKQRVTGLDFIPGLHPILSLSKMDQTLAVYQQVLTSLPSQNVLQIANDLENLRDLLHLLAFSKSCYLPQTSGLQKPESLDGVLEASLYSTEVVALSRLQGSLQDILQQLDVSPEC
notes: mature
For B14, the “fold increase in affinity as compared to the WT mouse leptin” value [5] was 1.5 fold.

B15: mouse leptin antagonist D23K/L39A/D40A/F41A (ligand)
chain: AVPIQKVQDDTKTLIKTIVTRINKISHTQSVSAKQRVTGAAAIPGLHPILSLSKMDQTLAVYQQVLTSLPSQNVLQIANDLENLRDLLHLLAFSKSCSLPQTSGLQKPESLDGVLEASLYSTEVVALSRLQGSLQDILQQLDVSPEC
notes: mature
With B15 the BAF/3 bioassay: fold increase in bioactivity as compared to the WT mouse leptin antagonist [4] was 3.7 fold and the “fold increase in affinity as compared to the WT mouse leptin antagonist” value [1] was 19 fold.

B16: mouse leptin antagonist H19 (D23G, T37A, G44D + L39A/D40A/F41A) (ligand)
chain: AVPIQKVQDDTKTLIKTIVTRINGISHTQSVSAKQRVAGAAAIPDLHPILSLSKMDQTLAVYQQVLTSLPSQNVLQIANDLENLRDLLHLLAFSKSCSLPQTSGLQKPESLDGVLEASLYSTEVVALSRLQGSLQDILQQLDVSPEC
notes: mature; also called H19 (antagonist)
With B16 the “fold increase in affinity as compared to the WT mouse leptin antagonist” value [5] was 6.1 fold.

B17: recombinant mouse leptin mutein H19 (D23G, T37A, G44D), agonist (ligand)
chain: AVPIQKVQDDTKTLIKTIVTRINGISHTQSVSAKQRVAGLDFIPDLHPILSLSKMDQTLAVYQQVLTSLPSQNVLQIANDLENLRDLLHLLAFSKSCSLPQTSGLQKPESLDGVLEASLYSTEVVALSRLQGSLQDILQQLDVSPEC
notes: mature
B17 was tested, and the BAF/3 bioassay: fold increase in bioactivity as compared to the WT mouse leptin [4] was 0.9 fold, the Luciferase bioassay: fold increase in bioactivity as compared to the WT mouse leptin [4] was 1.5 fold and the “fold increase in affinity as compared to the WT mouse leptin” value [5] was 10.4 fold.

B18: mouse leptin antagonist H22 (T12I + L39A/D40A/F41A) (ligand)
chain: AVPIQKVQDDTKILIKTIVTRINDISHTQSVSAKQRVTGAAAIPGLHPILSLSKMDQTLAVYQQVLTSLPSQNVLQIANDLENLRDLLHLLAFSKSCSLPQTSGLQKPESLDGVLEASLYSTEVVALSRLQGSLQDILQQLDVSPEC
notes: mature; also called H22 (antagonist)
In the case of B18, the “fold increase in affinity as compared to the WT mouse leptin antagonist” value [5] is reported as 11.2 fold.
